Reference: US20130236462A1 (Sanofi, published 2013)
One block for each binder: values may come before it.

Assays:
[1] = biological target: T1, recombinant human IL-4 (human, UniProt P05112 25-153); assay: cell-based or functional assay
T1 sequence (looked up): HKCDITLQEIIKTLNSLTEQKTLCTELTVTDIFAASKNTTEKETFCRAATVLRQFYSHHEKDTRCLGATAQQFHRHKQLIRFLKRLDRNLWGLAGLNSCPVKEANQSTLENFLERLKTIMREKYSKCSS

[2] = biological target: T1, recombinant human IL-4; assay: SPR Biacore 3000, ratio of KD
Text: (§1) Surface plasmon resonance technology on a Biacore 3000 (GE Healthcare) was used for detailed kinetic characterisation of purified anibodics. A capture assay using a species specific antibody (e.g. human-Fc specific MAB 1302, Chemicon) for capture and orientation of the investigated antibodies was used. The capture antibody was immobilized via primary amine groups (10000 RU) on a research grade CM5 chip (GE Life Sciences) using standard procedures. The analysed antibody was captured with an adjusted RU value that would result in maximal analyte binding of 30 RU at a flow rate of 10 μl/min. Binding kinetics were measured against recombinant human IL-4 and IL-13 over a concentration range between 0 to 50 nM in HBS EP (10 mM HEPES pH 7.4, 150 mM NaCl, 3 mM EDTA, 0.005% Surfactant P20) at a flow rate of 30 μl/min. Chip surfaces were regenerated with 10 mM glycine pH2.5. Kinetic parameters were analysed and calculated in the BIAevaluation program package using a flow cell without captured antibody as reference. To investigate additive binding of both antigens, a wizard-driven co-inject method has been applied in which one antigen was injected immediately followed by the antigen mix of IL-13/IL-4.

[3] = biological target: T1, recombinant human IL-4; assay: SPR Biacore 3000, antibody captured, cytokine in solution
Text: as §1

[4] = biological target: T2, recombinant human IL-13 (human, UniProt P35225 35-146, limits assumed); assay: cell-based or functional assay
[5] = biological target: T2, recombinant human IL-13; assay: SPR Biacore 3000, ratio of KD
Text: as §1

[6] = biological target: T2, recombinant human IL-13; assay: SPR Biacore 3000, antibody captured, cytokine in solution
Text: as §1

T2 sequence (P35225 35-146 limits assumed): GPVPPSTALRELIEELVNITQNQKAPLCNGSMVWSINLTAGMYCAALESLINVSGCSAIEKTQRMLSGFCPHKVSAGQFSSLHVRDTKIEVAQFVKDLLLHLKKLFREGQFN

IC50, inhibition of IL-4 induced TF-1 cell proliferation [1]: 0.041 nM | fold higher affinity than chimeric 8D4-8 [2]: 2 fold | fold higher affinity than the original murine 8D4-8 [2]: 11 fold | Kd [3]: 0.00329 nM | koff [3]: 0.000155 s⁻¹ | kon [3]: 4.72e+07 M⁻¹ s⁻¹
B1: Hu8D4-8 VL1 × VH1 (antibody, V domains shown)
VH: QVQLQQSGPELVKPGASVKISCKASGYSFTSYWIHWIKQRPGQGLEWIGMIDPSDGETRLNQRFQGRATLTVDESTSTAYMQLRSPTSEDSAVYYCTRLKEYGNYDSFYFDVWGAGTLVTVSS
VL: DIQMTQSPASLSVSVGDTITLTCHASQNIDVWLSWFQQKPGNIPKLLIYKASNLHTGVPSRFSGSGSGTGFTLTISSLQPEDIATYYCQQAHSYPFTFGGGTKLEIKR
notes: Expressed as a whole antibody, purified on Protein A; also called hu8D4-8 VL1xVH1; humanized 8D4-8 VL1xVH1

IC50, inhibition of IL-13 induced TF-1 cell proliferation [4]: 3.2 nM | fold higher affinity than chimeric B-B13 [5]: 6 fold | fold higher affinity than the original murine B-B13 [5]: 13 fold | Kd [6]: 0.0439 nM | koff [6]: 0.000112 s⁻¹ | kon [6]: 2.55e+06 M⁻¹ s⁻¹
B2: huB-B13 VL3 × VH2 (antibody, V domains shown)
VH: EVQLKESGPGLVAPGGSLSITCTVSGFSLTDSSINWVRQPPGKGLEWLGMIWGDGRIDYADALKSRLSISKDSSKSQVFLEMTSLRTDDTATYYCARDGYFPYAMDFWGQGTSVTVSS
VL: DIVLTQSPASLAVSLGQRATISCRASESVDSYGQSYMHWYQQKAGQPPKLLIYLASNLESGVPARFSGSGSRTDFTLTIDPVQAEDAATYYCQQNAEDSRTFGGGTKLEIK
notes: Expressed as a whole antibody, purified on Protein A; also called huB-B13 VL3xVH2; humanized B-B13 VL3xVH2
